From patent US20100256070A1 come the findings set out here.

In the data set the target is Diphtheria toxin anti-CD5 ScFv fusion protein bearing a granzyme B cleavage sequence.

B1: mouse granzyme B (protein)
chain: IIGGHEVKPHSRPYMALLSIKDQQPEAICGGFLIREDFVLTAAHCEGSIINVTLGAHNIKEQEKTQQVIPMVKCIPHPDYNPKTFSNDIMLLKLKSKAKRTRAVRPLNLPRRNVNVKPGDVCYVAGWGRMAPMGKYSNTLQEVELTVQKDRECESYFKNRYNKTNQICAGDPKTKRASFRGDSGGPLVCKKVAAGIVSYGYKDGSPPRAFTKVSSFLSWIKKTMKSS
For the protein B1, the “in vitro cleavage by granzyme B (gel)” value is “only a small fraction of DT and PEA fusion proteins was cleaved”.
